Experimental data: patent US20110213337A1 (BOARD OF TRUSTEES OF THE UNIVERSITY OF ARKANSAS, published 2011)

Biological target: T1, HLA A2.1 (A*0201) (human)
T1 construct: whole, on cells; Endogenous HLA class I molecule of T2 cells and of EBV-transformed LCL; also called HLA A0201
Experiment: T2 cell HLA A2.1 stabilisation assay, flow cytometry
Excerpt: This technique employs T2 cells which are peptide transporter-deficient and thus express low endogenous HLA class I levels due to inability to load peptide and stabilize HLA class I folding for surface expression.

binding result: binds
B1: Hepsin peptide 170-178 (peptide)
peptide: SLGRWPWQV
notes: Synthesized peptide added to T2 cells or loaded onto LCL; also called hepsin 170-178
